Results taken from paper PMC9254666.

Molecular target: p53 (Homo sapiens), P04637
Assay: ELISA
Conditions: remark: other sources report otherwise

Sequence of p53 (Homo sapiens), P04637 (P04637 whole entry): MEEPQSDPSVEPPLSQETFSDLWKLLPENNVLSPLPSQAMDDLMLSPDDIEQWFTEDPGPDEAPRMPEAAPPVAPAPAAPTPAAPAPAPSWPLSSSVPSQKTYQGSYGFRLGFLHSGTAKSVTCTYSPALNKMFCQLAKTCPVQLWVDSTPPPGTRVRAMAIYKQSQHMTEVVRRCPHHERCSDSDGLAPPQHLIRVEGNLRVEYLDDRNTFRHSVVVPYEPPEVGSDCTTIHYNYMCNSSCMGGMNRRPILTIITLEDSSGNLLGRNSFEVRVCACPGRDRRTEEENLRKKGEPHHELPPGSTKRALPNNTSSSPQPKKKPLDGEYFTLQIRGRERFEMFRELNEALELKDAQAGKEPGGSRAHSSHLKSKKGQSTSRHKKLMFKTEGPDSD

Kd: 4.4 nM
B1: HDMX, O15151 (protein)
chain: MTSFSTSAQCSTSDSACRISPGQINQVRPKLPLLKILHAAGAQGEMFTVKEVMHYLGQYIMVKQLYDQQEQHMVYCGGDLLGELLGRQSFSVKDPSPLYDMLRKNLVTLATATTDAAQTLALAQDHSMDIPSQDQLKQSAEESSTSRKRTTEDDIPTLPTSEHKCIHSREDEDLIENLAQDETSRLDLGFEEWDVAGLPWWFLGNLRSNYTPRSNGSTDLQTNQDVGTAIVSDTTDDLWFLNESVSEQLGVGIKVEAADTEQTSEEVGKVSDKKVIEVGKNDDLEDSKSLSDDTDVEVTSEDEWQCTECKKFNSPSKRYCFRCWALRKDWYSDCSKLTHSLSTSDITAIPEKENEGNDVPDCRRTISAPVVRPKDAYIKKENSKLFDPCNSVEFLDLAHSSESQETISSMGEQLDNLSEQRTDTENMEDCQNLLKPCSLCEKRPRDGNIIHGRTGHLVTCFHCARRLKKAGASCPICKKEIQLVIKVFIA
